The results in this text go back to article PMC5464003.

Assay [1] addresses GST-F28F8.5 (C. elegans) (UniProt H9G301). Briefly: pull-down; GST-F28F8.5 or GST adsorbed in equal amounts on glutathione-agarose, incubated with 35S-MDT-6 from rabbit reticulocyte lysate; bound fraction resolved by PAGE, autoradiography, excised bands counted by scintillation.
Assay [2] has the same target. In words: pull-down; GST-F28F8.5 or GST adsorbed in equal amounts on glutathione-agarose, incubated with His6-MDT-30-FLAG purified on a nickel column; Western blot with anti-FLAG M2, densitometry (ImageJ). (A western blot detects proteins with antibodies after separation by electrophoresis.)

B1: 35S-Methionine-MDT-6 (natural protein)
chain: MMPRMGPPAAARQDNPLHVSFRNPQWPPNFINKDNVLDYFCNQANAFYEMNSCNQQIRMQNIVNRTVEECLRTMPGIQYVLWYSQPPLFIICKQRRNNVTNVSPIAYYYVINGSVHQAPDMYSLVQSRLLGALEPLRNAFGEVTNYSRYNTAKGYYWEFKNKPNVKKREEEKKEDEEEKLEDRSTNFQKTRTMMLLNQLFSEMPAEDALEREEKEEVEEEEEETLKTEEPTTSTDEPKFAEPTARTTSKQ
modifications: 35S-methionine label
In the assay with GST-F28F8.5 (C. elegans) [1], B1 registered a fold enrichment over GST alone of 7.7 fold.

B2: His6-MDT-30-FLAG (natural protein)
chain: MNPNQPPNYPPGNPNQPPPFPPTPYYPMYQAGMPMPYIPQSPQYPQPGPPGGPPPFMGIQIKQEPMWSQENRYGMQAGPSGMPGMPPSSHPYGYPPMHGMPPGMPQGMPPMMDPNMPDFSSPPMHHPTTSLLAQHLSSAPLPPAPPQQQSHLSQLLQQPTTYSTATNPHAAPTQTIARRPDNEARNAQLQEQELAARQQQQQEYMLQQHQQQQQNRAGQLQAEQAFANPPTVSIPPQTGHPPQQTSASSQQRAQETMAQQTEPQSHIRESPQKETNLEKYSTGELCLYGRELVNDLNVKTSYLSTILKKVMERKPLNQGENPNDLADQCKNALQRMSDIRQIIEKRREPTWKRMTGEDYIELMLDDSELKKPMDEERQKRRAELEQRFAIVISKTPPVEGHIWYQGKWISEELHKKYMQFEANKEIVKNLAAELKALAWKIDVTSPGHLKKVDQTKISKKKTDDQV
As for B2, the fold enrichment over GST alone with GST-F28F8.5 (C. elegans) [2] worked out at 2.5 fold.
